Measured values taken from publication PMC10821397, “A New Approach for Preparing Stable High-Concentration Peptide Nanoparticle Formulations” (Pharmaceuticals, 2023).

Key:
Format in all cases: physicochemical
[1] = Nanomilling screen (resonant acoustic milling), particle size by dynamic light scattering; conditions: DLS; for Average Radius: nanomilling screen, milled at 100 mg/mL in water, 50 G, 2 h, average of 10 acquisitions, 25 °C, ± SD; for % Pd: normalized polydispersity, screen, 100 mg/mL
Protocol: A UV-Star clear, flat-bottom 96-well plate was used as a high-throughput mixing container, as described previously. […] Each well plate was sealed with a Thermo Fisher Scientific ALPS 50 V Manual Heat Sealer (Thermo Fisher Scientific Inc., Waltham, MA, USA). Each sealed well plate was then placed on a Resodyn LabRAM II Resonant Acoustic mixer (Resodyn Acoustic Mixers, Butte, MT, USA) and milled at 50 G acceleration for 2 h.
(§1) After milling, a 5 μL aliquot of the nanosuspension sample was taken and diluted in 995 μL of D.I. water for analysis using a Wyatt DynaProTM Plate Reader II (Waters Corporation, Santa Barbara, CA, USA) dynamic light scattering instrument. A 30 μL aliquot of the diluted suspension was dispensed into a Corning® low-volume black polystyrene 384-well plate for analysis. The particle size of each sample was reported as an average of 10 acquisitions with an acquisition time of 5 s at 25 °C. Autocorrelation curves were fitted using either the cumulants or regularization method, and the average particle radius and diameters D50 and D90 were obtained and reported along with their standard deviations. The normalized polydispersity (%Pd) was calculated as the polydispersity divided by the estimated hydrodynamic radius from the cumulants fit of the autocorrelation function multiplied by 100.

[2] = Scale-up nanosuspension, particle size by dynamic light scattering; conditions: for % Pd: normalized polydispersity, scale-up; for % Pd / Average Radius: 100 mg/mL, DLS; for Average Radius: scale-up batch, average of 10 acquisitions, 25 °C, ± SD
Protocol: A 4 mL clear glass vial was used as a scale-up container. […] The vial was then placed on a Resodyn LabRAM II Resonant Acoustic mixer and milled at 50 G acceleration for 2 h. The resulting nanosuspension was recovered by using a syringe equipped with an 18 G needle.
as §1

[3] = Particle size of nanosuspensions on storage (dynamic light scattering); conditions: DLS
Protocol: as §1

[4] = Physical stability (monomer content) by size-exclusion chromatography; conditions: both formulations (PVP K29-32/SDS, HPC-SL/SDS), 28 days, 4 °C, RT and 37 °C; no higher-order oligomers
Protocol: An Agilent 1290 Infinity II (Agilent Technologies, Santa Clara, CA, USA) was used for chromatographic analysis. Data were acquired and processed using Empower 3 software (Waters, Milford, MA, USA). For all three peptides (GNE-A, cyclosporin A, and insulin), separations were performed in an Xbridge BEH125 SEC column ([…], 7.8 × 150 mm) for physical stability analysis. Isocratic method was applied in which 80% of the 5 mM phosphate buffer at pH 7 in acetonitrile was used as the mobile phase. The injection volume was 8 μL and the column temperature was 30 °C.

[5] = 25% HPC-SL, 1% SDS (wt% to peptide)
[6] = 25% PVP K29-32, 1% SDS (wt% to peptide)
[7] = 25% Pluronic F127 (wt% to peptide)

## Insulin (recombinant human) [Insulin Monomer]
[1]; [5]
  Average Radius: 130 ± 4 nm
[1]; [6]
  Average Radius: 112 ± 2 nm
[1]; [7]
  Average Radius: 419 ± 24 nm
  % Pd: 14.6%
[1]; 25% Tween 80 (wt% to peptide)
  Average Radius: 903 ± 124 nm
  % Pd: Multimodal
[2]; both formulations (HPC-SL/SDS and PVP K29-32/SDS), screen and scale-up batch
  average radius of the nanoparticles: 110–130 nm
[2]; [5]
  % Pd: 33.6%
  Average Radius: 135 ± 14 nm
[2]; [6]
  % Pd: 19.9%
  Average Radius: 121 ± 5 nm
[3]; insulin nanosuspension with HPC-SL/SDS, 4 °C and room temperature, up to 1 month
  particle size on storage: some particle growth
[3]; insulin nanosuspension with HPC-SL/SDS, 37 °C, up to 1 month
  particle size on storage: significant aggregation
[3]; insulin nanosuspension with PVP K29-32/SDS, 28 days at 4 °C or room temperature
  particle size on storage: No significant particle size growth
[3]; insulin nanosuspension with PVP K29-32/SDS, up to a month at 37 °C
  particle size on storage: remained in the accepted nano-scale range
[4]
  insulin monomer concentration (SEC): remains quantitative
